Results on 42 molecules are retold here after patent US10919943B2, “Mutant proteins enabling agrochemical control of plant gene expression” (The Regents of the University of California, priority 2016, dated 2021).

Positions count from the first letter of the chain named. Names and notes keep the numbering of the source.

The test has as its system HAB1. Kind of test: Yeast two hybrid of pBD-PYR1 site saturation mutants with pACT-HAB1 on 10 μM ABA, β-galactosidase staining. Format: cell-based, Arabidopsis. The arrangement: key: x: Mutations in PYR1 that disrupt ABA-induced binding to PYR1 to HAB1. The following applies: S. cerevisiae Y190, 10 μM ABA; dead = lack of visible staining in comparison to wild type control. The procedure, abridged: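 S. cerevisiae Y190 co-expressing GAL4-DNA-binding-domain–PYR1 mutants and GAL4-activation-domain–HAB1 were spotted on SD (-Leu, -Trp) agar with 10 μM (+)-ABA for 2 days at 30° C. Colonies were chloroform-lysed and stained for β-galactosidase. Mutants lacking visible staining relative to wild type were scored as non-binding.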

B1: R116W: PYR1 mutant (protein, UniProt O49686 1-191, looked up, variant R116W)
Abscisic acid receptor PYR1: MPSELTPEERSELKNSIAEFHTYQLDPGSCSSLHAQRIHAPPELVWSIVRRFDKPQTYKHFIKSCSVEQNFEMRVGCTRDVIVISGLPANTSTERLDILDDERRVTGFSIIGGEHWLTNYKSVTTVHRFEKENRIWTVVLESYVVDMPEGNSEDDTRMFADTVVKLNLQKLATVAEAMARNSGDGSGSQVT
B1: the “Mutations in PYR1 that disrupt ABA-induced binding to PYR1 to HAB1” value (from here on “Mutations”) was “x”.

B2: L117T: PYR1 mutant (protein, UniProt O49686 1-191, looked up, variant L117T)
Abscisic acid receptor PYR1: B1 Abscisic acid receptor PYR1 with W116R, L117T
Take B2: the “Mutations” value was “x”.

B3: P148C: PYR1 mutant (protein, UniProt O49686 1-191, looked up, variant P148C)
Abscisic acid receptor PYR1: B1 Abscisic acid receptor PYR1 with W116R, P148C
As for B3, the “Mutations” value is on record as “x”.

B4: P148N: PYR1 mutant (protein, UniProt O49686 1-191, looked up, variant P148N)
Abscisic acid receptor PYR1: B1 Abscisic acid receptor PYR1 with W116R, P148N
Turning to B4, the “Mutations” value is listed as “x”.

B5: R116E: PYR1 mutant (protein, UniProt O49686 1-191, looked up, variant R116E)
Abscisic acid receptor PYR1: B1 Abscisic acid receptor PYR1 with W116E
Take B5: the “Mutations” value is “x”.

B6: L117Y: PYR1 mutant (protein, UniProt O49686 1-191, looked up, variant L117Y)
Abscisic acid receptor PYR1: B1 Abscisic acid receptor PYR1 with W116R, L117Y
In the case of B6, the “Mutations” value is listed as “x”.

B7: P148K: PYR1 mutant (protein, UniProt O49686 1-191, looked up, variant P148K)
Abscisic acid receptor PYR1: B1 Abscisic acid receptor PYR1 with W116R, P148K
On to B7, for which the “Mutations” value is “x”.

B8: P148D: PYR1 mutant (protein, UniProt O49686 1-191, looked up, variant P148D)
Abscisic acid receptor PYR1: B1 Abscisic acid receptor PYR1 with W116R, P148D
On to B8, for which the “Mutations” value is “x”.

B9: L117W: PYR1 mutant (protein, UniProt O49686 1-191, looked up, variant L117W)
Abscisic acid receptor PYR1: B1 Abscisic acid receptor PYR1 with W116R, L117W
Take B9: the “Mutations” value was “x”.

B10: L117N: PYR1 mutant (protein, UniProt O49686 1-191, looked up, variant L117N)
Abscisic acid receptor PYR1: B1 Abscisic acid receptor PYR1 with W116R, L117N
With B10, the “Mutations” value was “x”.

B11: P148R: PYR1 mutant (protein, UniProt O49686 1-191, looked up, variant P148R)
Abscisic acid receptor PYR1: B1 Abscisic acid receptor PYR1 with W116R, P148R
B11: the “Mutations” value is “x”.

B12: R116C: PYR1 mutant (protein, UniProt O49686 1-191, looked up, variant R116C)
Abscisic acid receptor PYR1: B1 Abscisic acid receptor PYR1 with W116C
For the molecule B12, the “Mutations” value was “x”.

B13: L117A: PYR1 mutant (protein, UniProt O49686 1-191, looked up, variant L117A)
Abscisic acid receptor PYR1: B1 Abscisic acid receptor PYR1 with W116R, L117A
Take B13: the “Mutations” value is on record as “x”.

B14: P148G: PYR1 mutant (protein, UniProt O49686 1-191, looked up, variant P148G)
Abscisic acid receptor PYR1: B1 Abscisic acid receptor PYR1 with W116R, P148G
In the case of B14, the “Mutations” value is “x”.

B15: R116I: PYR1 mutant (protein, UniProt O49686 1-191, looked up, variant R116I)
Abscisic acid receptor PYR1: B1 Abscisic acid receptor PYR1 with W116I
With B15, the “Mutations” value is listed as “x”.

B16: P148T: PYR1 mutant (protein, UniProt O49686 1-191, looked up, variant P148T)
Abscisic acid receptor PYR1: B1 Abscisic acid receptor PYR1 with W116R, P148T
For B16, the “Mutations” value was “x”.

B17: L117V: PYR1 mutant (protein, UniProt O49686 1-191, looked up, variant L117V)
Abscisic acid receptor PYR1: B1 Abscisic acid receptor PYR1 with W116R, L117V
In the case of B17, the “Mutations” value is recorded as “x”.

B18: L117R: PYR1 mutant (protein, UniProt O49686 1-191, looked up, variant L117R)
Abscisic acid receptor PYR1: B1 Abscisic acid receptor PYR1 with W116R, L117R
With B18, the “Mutations” value is given as “x”.

B19: P148Q: PYR1 mutant (protein, UniProt O49686 1-191, looked up, variant P148Q)
Abscisic acid receptor PYR1: B1 Abscisic acid receptor PYR1 with W116R, P148Q
Consider B19, for which the “Mutations” value is given as “x”.

B20: P148F: PYR1 mutant (protein, UniProt O49686 1-191, looked up, variant P148F)
Abscisic acid receptor PYR1: B1 Abscisic acid receptor PYR1 with W116R, P148F
Take B20: the “Mutations” value is given as “x”.

B21: P148S: PYR1 mutant (protein, UniProt O49686 1-191, looked up, variant P148S)
Abscisic acid receptor PYR1: B1 Abscisic acid receptor PYR1 with W116R, P148S
B21: the “Mutations” value was “x”.

B22: P148V: PYR1 mutant (protein, UniProt O49686 1-191, looked up, variant P148V)
Abscisic acid receptor PYR1: B1 Abscisic acid receptor PYR1 with W116R, P148V
As to B22, the “Mutations” value is “x”.

B23: L117G: PYR1 mutant (protein, UniProt O49686 1-191, looked up, variant L117G)
Abscisic acid receptor PYR1: B1 Abscisic acid receptor PYR1 with W116R, L117G
With B23, the “Mutations” value was “x”.

B24: L117S: PYR1 mutant (protein, UniProt O49686 1-191, looked up, variant L117S)
Abscisic acid receptor PYR1: B1 Abscisic acid receptor PYR1 with W116R, L117S
With B24, the “Mutations” value is listed as “x”.

B25: P148Y: PYR1 mutant (protein, UniProt O49686 1-191, looked up, variant P148Y)
Abscisic acid receptor PYR1: B1 Abscisic acid receptor PYR1 with W116R, P148Y
Regarding B25, the “Mutations” value is recorded as “x”.

B26: L117K: PYR1 mutant (protein, UniProt O49686 1-191, looked up, variant L117K)
Abscisic acid receptor PYR1: B1 Abscisic acid receptor PYR1 with W116R, L117K
Take B26: the “Mutations” value was “x”.

B27: L117H: PYR1 mutant (protein, UniProt O49686 1-191, looked up, variant L117H)
Abscisic acid receptor PYR1: B1 Abscisic acid receptor PYR1 with W116R, L117H
With B27, the “Mutations” value is reported as “x”.

B28: L117Q: PYR1 mutant (protein, UniProt O49686 1-191, looked up, variant L117Q)
Abscisic acid receptor PYR1: B1 Abscisic acid receptor PYR1 with W116R, L117Q
As for B28, the “Mutations” value is on record as “x”.

B29: L117D: PYR1 mutant (protein, UniProt O49686 1-191, looked up, variant L117D)
Abscisic acid receptor PYR1: B1 Abscisic acid receptor PYR1 with W116R, L117D
On to B29, for which the “Mutations” value is given as “x”.

B30: P148W: PYR1 mutant (protein, UniProt O49686 1-191, looked up, variant P148W)
Abscisic acid receptor PYR1: B1 Abscisic acid receptor PYR1 with W116R, P148W
B30: the “Mutations” value was “x”.

B31: P148H: PYR1 mutant (protein, UniProt O49686 1-191, looked up, variant P148H)
Abscisic acid receptor PYR1: B1 Abscisic acid receptor PYR1 with W116R, P148H
For B31, the “Mutations” value is “x”.

B32: L117E: PYR1 mutant (protein, UniProt O49686 1-191, looked up, variant L117E)
Abscisic acid receptor PYR1: B1 Abscisic acid receptor PYR1 with W116R, L117E
For B32, the “Mutations” value was “x”.

B33: L117P: PYR1 mutant (protein, UniProt O49686 1-191, looked up, variant L117P)
Abscisic acid receptor PYR1: B1 Abscisic acid receptor PYR1 with W116R, L117P
With B33, the “Mutations” value is “x”.

B34: R116Y: PYR1 mutant (protein, UniProt O49686 1-191, looked up, variant R116Y)
Abscisic acid receptor PYR1: B1 Abscisic acid receptor PYR1 with W116Y
Consider B34, for which the “Mutations” value is given as “x”.

B35: P148I: PYR1 mutant (protein, UniProt O49686 1-191, looked up, variant P148I)
Abscisic acid receptor PYR1: B1 Abscisic acid receptor PYR1 with W116R, P148I
On to B35, for which the “Mutations” value was “x”.

B36: P148E: PYR1 mutant (protein, UniProt O49686 1-191, looked up, variant P148E)
Abscisic acid receptor PYR1: B1 Abscisic acid receptor PYR1 with W116R, P148E
On to B36, for which the “Mutations” value is reported as “x”.

B37: R116F: PYR1 mutant (protein, UniProt O49686 1-191, looked up, variant R116F)
Abscisic acid receptor PYR1: B1 Abscisic acid receptor PYR1 with W116F
Take B37: the “Mutations” value is reported as “x”.

B38: R116H: PYR1 mutant (protein, UniProt O49686 1-191, looked up, variant R116H)
Abscisic acid receptor PYR1: B1 Abscisic acid receptor PYR1 with W116H
As for B38, the “Mutations” value is “x”.

B39: R116G: PYR1 mutant (protein, UniProt O49686 1-191, looked up, variant R116G)
Abscisic acid receptor PYR1: B1 Abscisic acid receptor PYR1 with W116G
In the case of B39, the “Mutations” value is reported as “x”.

B40: R116D: PYR1 mutant (protein, UniProt O49686 1-191, looked up, variant R116D)
Abscisic acid receptor PYR1: B1 Abscisic acid receptor PYR1 with W116D
Consider B40, for which the “Mutations” value is “x”.

B41: P148L: PYR1 mutant (protein, UniProt O49686 1-191, looked up, variant P148L)
Abscisic acid receptor PYR1: B1 Abscisic acid receptor PYR1 with W116R, P148L
Take B41: the “Mutations” value was “x”.

B42: P148M: PYR1 mutant (protein, UniProt O49686 1-191, looked up, variant P148M)
Abscisic acid receptor PYR1: B1 Abscisic acid receptor PYR1 with W116R, P148M
Regarding B42, the “Mutations” value is “x”.
